From ChEMBL document CHEMBL1250451, “Mechanistic insights into a Ca2+-dependent family of alpha-mannosidases in a human gut symbiont” (Nat Chem Biol, 2010) come the findings set out here.

Format in all cases: protein assay
Substrate in data set [1]: O=[N+]([O-])c1ccc(O[C@H]2O[C@H](CO)[C@@H](O)[C@H](O)[C@@H]2O)cc1
As to the kind of experiment: (§1) Activity of Bacteroides thetaiotaomicron GH92 alpha-mannosidase 3990 S86A mutant assessed as mannose release after 16 hrs by HPLC relative to wild type enzyme.

Substrate in data set [2]: OC[C@H]1O[C@H](O[C@H]2[C@@H](O)[C@H](O)[C@@H](CO)O[C@@H]2O)[C@@H](O)[C@@H](O)[C@@H]1O
Described as §1.

Substrate in data set [3]: O=[N+]([O-])c1ccc(O[C@H]2O[C@H](CO)[C@@H](O)[C@H](O)[C@@H]2O)c([N+](=O)[O-])c1
As to the kind of experiment: (§2) Ratio of Kcat to Km for Bacteroides thetaiotaomicron GH92 alpha-mannosidase 3990 S86A mutant assessed as mannose release after 16 hrs by HPLC relative to wild type enzyme.

Substrate in data set [4]: O=[N+]([O-])c1ccc(O[C@H]2O[C@H](CO)[C@@H](O)[C@H](O)[C@@H]2O)cc1
The data set is described as §2.

Substrate in data set [5]: OC[C@H]1O[C@H](O[C@H]2[C@@H](O)[C@H](O)[C@@H](CO)O[C@@H]2O)[C@@H](O)[C@@H](O)[C@@H]1O
The data set is described as §2.

Substrate in data set [6]: O=[N+]([O-])c1ccc(O[C@H]2O[C@H](CO)[C@@H](O)[C@H](O)[C@@H]2O)cc1
The experiment in a line: (§3) Activity of Bacteroides thetaiotaomicron GH92 alpha-mannosidase 3990 E585A mutant assessed as as mannose release after 16 hrs by HPLC relative to wild type enzyme.

Substrate in data set [7]: OC[C@H]1O[C@H](O[C@H]2[C@@H](O)[C@H](O)[C@@H](CO)O[C@@H]2O)[C@@H](O)[C@@H](O)[C@@H]1O
The description is as §3.

Substrate in data set [8]: O=[N+]([O-])c1ccc(O[C@H]2O[C@H](CO)[C@@H](O)[C@H](O)[C@@H]2O)c([N+](=O)[O-])c1
The experiment in a line: (§4) Ratio of Kcat to Km for Bacteroides thetaiotaomicron GH92 alpha-mannosidase 3990 E585A mutant assessed as as mannose release after 16 hrs by HPLC relative to wild type enzyme.

Substrate in data set [9]: O=[N+]([O-])c1ccc(O[C@H]2O[C@H](CO)[C@@H](O)[C@H](O)[C@@H]2O)cc1
The description is as §4.

Substrate in data set [10]: OC[C@H]1O[C@H](O[C@H]2[C@@H](O)[C@H](O)[C@@H](CO)O[C@@H]2O)[C@@H](O)[C@@H](O)[C@@H]1O
The description is as §4.

Substrate in data set [11]: O=[N+]([O-])c1ccc(O[C@H]2O[C@H](CO)[C@@H](O)[C@H](O)[C@@H]2O)c([N+](=O)[O-])c1
The experiment in a line: (§5) Ratio of Kcat to Km for Bacteroides thetaiotaomicron GH92 alpha-mannosidase 3990 Q602A mutant assessed as as mannose release after 16 hrs by HPLC relative to wild type enzyme.

Substrate in data set [12]: O=[N+]([O-])c1ccc(O[C@H]2O[C@H](CO)[C@@H](O)[C@H](O)[C@@H]2O)cc1
Described as §5.

Substrate in data set [13]: OC[C@H]1O[C@H](O[C@H]2[C@@H](O)[C@H](O)[C@@H](CO)O[C@@H]2O)[C@@H](O)[C@@H](O)[C@@H]1O
The description is as §5.

Substrate in data set [14]: O=[N+]([O-])c1ccc(O[C@H]2O[C@H](CO)[C@@H](O)[C@H](O)[C@@H]2O)cc1
The experiment in a line: (§6) Activity of Bacteroides thetaiotaomicron GH92 alpha-mannosidase 3990 Q602A mutant assessed as as mannose release after 16 hrs by HPLC relative to wild type enzyme.

Substrate in data set [15]: OC[C@H]1O[C@H](O[C@H]2[C@@H](O)[C@H](O)[C@@H](CO)O[C@@H]2O)[C@@H](O)[C@@H](O)[C@@H]1O
The description is as §6.

B1: Alpha-1,2-mannosidase (BT_3990) (Bacteroides thetaiotaomicron), Q8A0N1 S86A (protein)
chain: MKRLLLIACILNCTLLSQAKDWTQYVNPLMGSQSTFELSTGNTYPAIARPWGMNFWTPQTGKMGDGWQYTYTANKIRGFKQTHQPAPWINDYGQFSIMPIVGQPVFDEEKRASWFAHKGEVATPYYYKVYLAEHDIVTEMTPTERAVLFRFTFPENDHSYVVVDAFDKGSYIKIIPEENKIIGYTTRNSGGVPENFKNYFIIEFDKPFTYKATVENGNLQENVAEQTTDHAGAIIGFKTRKGEQVNARIASSFISFEQAAANMNELGKDNIEQLAQKGKDAWNQVLGKIEVEGGNLDQYRTFYSCLYRSLLFPRKFYELDANGQPIHYSPYNGQVLPGYMFTDTGFWDTFRCLFPLLNLMYPSVNKEMQEGLINTYLESGFFPEWASPGHRGCMVGNNSASILVDAYMKGVKVDDIKTLYEGLIHGTENVHPEVSSTGRLGYEYYNKLGYVPYDVKINENAARTLEYAYDDWCIYRLAKELKRPKKEISLFAKRAMNYKNLFDKESKLMRGRNEDGTFQSPFSPLKWGDAFTEGNSWHYTWSVFHDPQGLIDLMGGKEMFVTMMDSVFAVPPIFDDSYYGQVIHEIREMTVMNMGNYAHGNQPIQHMIYLYDYAGQPWKAQYWLRQVMDRMYTPGPDGYCGDEDNGQTSAWYVFSALGFYPVCPGTDEYVMGTPLFKKATLHFENGNSLVIDAPNNSTENFYIDSMSFNGADHTKNYLRHEDLFKGGTIKVDMSNRPNLNRGTKEEDMPYSFSKE
B1: the Michaelis constant (Km) stood at 8.5 mM in [1] and 3.2 mM in data set [2]. The kcat in data set [1] stood at 0.00667 s⁻¹; in data set [2] it was 2 s⁻¹. Also, the figures for the kcat/Km in data set [3], in [4] and in [5] were 51.7 M⁻¹ s⁻¹, 0.783 M⁻¹ s⁻¹ and 6330 M⁻¹ s⁻¹, respectively.

B2: Alpha-1,2-mannosidase (BT_3990) (Bacteroides thetaiotaomicron), Q8A0N1 E585A (protein)
chain: MKRLLLIACILNCTLLSQAKDWTQYVNPLMGSQSTFELSTGNTYPAIARPWGMNFWTPQTGKMGDGWQYTYTANKIRGFKQTHQPSPWINDYGQFSIMPIVGQPVFDEEKRASWFAHKGEVATPYYYKVYLAEHDIVTEMTPTERAVLFRFTFPENDHSYVVVDAFDKGSYIKIIPEENKIIGYTTRNSGGVPENFKNYFIIEFDKPFTYKATVENGNLQENVAEQTTDHAGAIIGFKTRKGEQVNARIASSFISFEQAAANMNELGKDNIEQLAQKGKDAWNQVLGKIEVEGGNLDQYRTFYSCLYRSLLFPRKFYELDANGQPIHYSPYNGQVLPGYMFTDTGFWDTFRCLFPLLNLMYPSVNKEMQEGLINTYLESGFFPEWASPGHRGCMVGNNSASILVDAYMKGVKVDDIKTLYEGLIHGTENVHPEVSSTGRLGYEYYNKLGYVPYDVKINENAARTLEYAYDDWCIYRLAKELKRPKKEISLFAKRAMNYKNLFDKESKLMRGRNEDGTFQSPFSPLKWGDAFTEGNSWHYTWSVFHDPQGLIDLMGGKEMFVTMMDSVFAVPPIFDDSYYGQVIHAIREMTVMNMGNYAHGNQPIQHMIYLYDYAGQPWKAQYWLRQVMDRMYTPGPDGYCGDEDNGQTSAWYVFSALGFYPVCPGTDEYVMGTPLFKKATLHFENGNSLVIDAPNNSTENFYIDSMSFNGADHTKNYLRHEDLFKGGTIKVDMSNRPNLNRGTKEEDMPYSFSKE
With B2, the Km entry is “Not Active” in data set [6] and 2.3 mM in [7]. Moreover, the kcat result in data set [6] is “Not Active”; in [7], 0.00733 s⁻¹. Also, the specificity constant (kcat/Km) in [8] came out at 9330 M⁻¹ s⁻¹; in data set [9] it was 5.5 M⁻¹ s⁻¹; in [10] it was 3.17 M⁻¹ s⁻¹.

B3: Alpha-1,2-mannosidase (BT_3990) (Bacteroides thetaiotaomicron), Q8A0N1 Q602A (protein)
chain: MKRLLLIACILNCTLLSQAKDWTQYVNPLMGSQSTFELSTGNTYPAIARPWGMNFWTPQTGKMGDGWQYTYTANKIRGFKQTHQPSPWINDYGQFSIMPIVGQPVFDEEKRASWFAHKGEVATPYYYKVYLAEHDIVTEMTPTERAVLFRFTFPENDHSYVVVDAFDKGSYIKIIPEENKIIGYTTRNSGGVPENFKNYFIIEFDKPFTYKATVENGNLQENVAEQTTDHAGAIIGFKTRKGEQVNARIASSFISFEQAAANMNELGKDNIEQLAQKGKDAWNQVLGKIEVEGGNLDQYRTFYSCLYRSLLFPRKFYELDANGQPIHYSPYNGQVLPGYMFTDTGFWDTFRCLFPLLNLMYPSVNKEMQEGLINTYLESGFFPEWASPGHRGCMVGNNSASILVDAYMKGVKVDDIKTLYEGLIHGTENVHPEVSSTGRLGYEYYNKLGYVPYDVKINENAARTLEYAYDDWCIYRLAKELKRPKKEISLFAKRAMNYKNLFDKESKLMRGRNEDGTFQSPFSPLKWGDAFTEGNSWHYTWSVFHDPQGLIDLMGGKEMFVTMMDSVFAVPPIFDDSYYGQVIHEIREMTVMNMGNYAHGNAPIQHMIYLYDYAGQPWKAQYWLRQVMDRMYTPGPDGYCGDEDNGQTSAWYVFSALGFYPVCPGTDEYVMGTPLFKKATLHFENGNSLVIDAPNNSTENFYIDSMSFNGADHTKNYLRHEDLFKGGTIKVDMSNRPNLNRGTKEEDMPYSFSKE
Regarding B3, the kcat/Km in data set [11] came to 20 M⁻¹ s⁻¹; in data set [12] it was 0.35 M⁻¹ s⁻¹; in data set [13], 383 M⁻¹ s⁻¹. The Km in data set [14] worked out at 6.6 mM; in [15], 16 mM. Besides, the figures for the kcat in data set [14] and in data set [15] were 0.00233 s⁻¹ and 6 s⁻¹, respectively.
